Data as given in patent US9914914B2, “Polymerase capable of producing non-DNA nucleotide polymers” (Medical Research Council, priority 2012, dated 2018).
Numbering of substitutions follows the chain as printed. Numbers in names are those of the source. Entries after “also recorded” stand apart in the source; their conditions may differ. Blank lines part the entries; values can stand above or below the molecule they belong to.

Legend:
Ramos = test: IC50 of nucleoside drugs and TempN polymer on Ramos cells; assay type: cell-based; conditions: Homo sapiens
Procedure: The polymer linked to the targeting protein was then mixed with Nanocargo transfection reagent according to the manufacturer's instructions (Tecrea, UK), and added to Ramos cells at a final concentration of 40 nM (polymer concentration). After 96 hours incubation in a humidified atmosphere at 37° C. (5% CO2), WST-1 reagent (Roche, UK) was added to the cells to measure cell growth inhibition (FIG. 42). […] Only when the toxic polymer is targeted to the Ramos cells via CD20 is cell growth inhibited.

CCRF-CEM = test: IC50 of nucleoside drugs and TempN polymer on CCRF-CEM cells; assay type: cell-based; conditions: Homo sapiens
FANA template = test: FANA reverse transcriptase screen (PCR from cDNA); assay type: biochemical; conditions: judged by PCR from the cDNA
Procedure: ANA and FANA were synthesised using D4YK from DNA primers against a biotinylated template. This was captured onto streptavidin-coated paramagnetic beads and the nascent ANA or FANA strand eluted using two washes in 30 mM NaOH. The single stranded products were neutralised, ethanol precipitated and used as a template to screen a panel of commercial polymerases as well as in-house engineered polymerases for RT activity.
We have learnt that RT-521 must be removed before PCR as even low concentrations of RT-521 inhibit PCR. In this case, the reverse transcription reactions were purified by Exol (NEB) treatment to remove unextended primers and 0.05 volumes (1 μl out of 20 μl reaction) were used as template for 20 μl PCR with FastStart Taq (Roche). If the reactions had been purified by a method which removed RT-521 (e.g. silica column or phenol:chloroform extraction) the PCR for the RT-521 reaction would have been expected to be positive, as observed in other experiments (FIG. 19).

[1] = tested on: arabinosyl-NTPs, DNA template; test: Polymerase dilution experiment, ANA synthesis, D4K vs D4K521; assay type: biochemical; conditions: for polymerase concentration at which full-length (+57 nt) ANA product is present: 0.125 mM each arabinosyl-NTP, 1 min 94° C., 30 sec 50° C., 2 min 65° C.
Procedure: In this experiment, the concentration of buffer (1× Thermopol (NEB) buffer), arabinosyl-NTPs (0.125 mM each), primer (200 nM), template (400 nM), the reaction volume ([…]) and extension conditions (1 min 94° C., 30 sec 50° C., 2 min 65° C.) were held constant.

faNTP, DNA template = test: FANA synthesis by D4YK; assay type: biochemical
Procedure: (a) FANA synthesis at reduced faNTP concentrations. […] (b) Timecourse of YtRtemp8 (encoding 98 nt incorporations) synthesis by D4YK, showing substantial full-length synthesis in only 5 min. (c) Timecourse of ApLib5 (encoding 78 nt incorporations, of which 40 are random nucleotides) synthesis by D4YK, again showing substantial full length product in only 5 min.
Not only is FANA synthesis effective at relatively low FANA-NTP (faNTP) concentrations (less than 50 μM each, compared to 250 μM each for ANA synthesis) but synthesis of both a […] incorporation tRNA and an N40 library is efficient in less than 5 minutes (FIG. 15). This rapid synthesis and toleration of a wide range of substrate concentrations is indicative of an efficient polymerase, but neither single incorporation kinetics nor processivity have been investigated for D4YK.

[2] = tested on: arabinosyl-NTPs, DNA template; test: Polymerase dilution experiment, ANA synthesis, D4 vs D4K; assay type: biochemical
Procedure: In this experiment, the concentration of buffer (1× Thermopol (NEB) buffer), arabinosyl-NTPs (0.25 mM each), primer (200 nM), template (400 nM), the reaction volume ([…]) and extension conditions (1 min 94° C., 30 sec 50° C., 2 min 65° C.) were held constant.

Molecule: Nc1ccn([C@@H]2O[C@H](CO)C(O)C2O)c(=O)n1 (stereo partly drawn) [AraC, 9-beta-D-arabinofuranosyl-cytidine]
IC50 (Ramos): 22.7 nM
IC50 (CCRF-CEM): 12.9 nM

Molecule: Nc1nc(Cl)nc2c1ncn2[C@@H]1O[C@H](CO)[C@@H](O)[C@@H]1F [Clofarabine, 9-beta-D-fluoroarabinosyl-2′chloroadenosine]
IC50 (Ramos): 18 nM
IC50 (CCRF-CEM): 20 nM

Molecule: Nc1nc(F)nc2c1ncn2[C@@H]1O[C@H](CO)[C@@H](O)[C@@H]1O [Fludarabine, 9-beta-D-arabinofuranosyl-2′fluoroadenosine]
IC50 (Ramos): 1300 nM
IC50 (CCRF-CEM): 864 nM

Molecule: Nc1ccn([C@@H]2O[C@H](CO)C(O)C2(F)F)c(=O)n1 (some centres unmarked) [GemC, 2′2′-difluorodeoxycytidine]
IC50 (Ramos): 1.6 nM
IC50 (CCRF-CEM): 11.7 nM

B1: Therminator: 9° N exo−: A485L polymerase, commercial (protein, listed as Thermococcus gorgonarius)
chain: MILDTDYITEDGKPVIRIFKKENGEFKIDYDRNFEPYIYALLKDDSAIEDVKKITAERHGTTVRVVRAEKVKKKFLGRPIEVWKLYFTHPQDVPAIRDKIKEHPAVVDIYEYDIPFAKRYLIDKGLIPMEGDEELKMLAFDIETLYHEGEEFAEGPILMISYADEEGARVITWKNIDLPYVDVVSTEKEMIKRFLKVVKEKDPDVLITYNGDNFDFAYLKKRSEKLGVKFILGREGSEPKIQRMGDRFAVEVKGRIHFDLYPVIRRTINLPTYTLEAVYEAIFGQPKEKVYAEEIAQAWETGEGLERVARYSMEDAKVTYELGKEFFPMEAQLSRLVGQSLWDVSRSSTGNLVEWFLLRKAYERNELAPNKPDERELARRRESYAGGYVKEPERGLWENIVYLDFRSLYPSIIITHNVSPDTLNREGCEEYDVAPQVGHKFCKDFPGFIPSLLGDLLEERQKVKKKMKATIDPIEKKLLDYRQRLIKILANSFYGYYGYAKARWYCKECAESVTAWGRQYIETTIREIEEKFGFKVLYADTDGFFATIPGADAETVKKKAKEFLDYINAKLPGLLELEYEGFYKRGFFVTKKKYAVIDEEDKITTRGLEIVRRDWSEIAKETQARVLEAILKHGDVEEAVRIVKEVTEKLSKYEVPPEKLVIYEQITRDLKDYKATGPHVAVAKRLAARGIKIRPGTVISYIVLKGSGRIGDRAIPFDEFDPAKHKYDAEYYIENQVLPAVERILRAFGYRKEDLRYQKTRQVGLGAWLKPKT
FANA RT activity (FANA template): weak FANA RT activity

B2: RT-521: Tgo V93Q, D141A, E143A, A485L, I521L, K726R, E429G; SEQ ID NO:12 (protein)
chain: B1 chain with V93Q, D141A, E143A, E429G, I521L, K726R
modifications: T. go derived RT-521 polymerase
FANA RT activity (FANA template): does have FANA RT activity; also recorded: effective FANA reverse transcriptase

B5: D4: prior art TgoT-derived RNA polymerase with E664Q, SEQ ID NO:3 (protein)
chain: MILDTDYITEDGKPVIRIFKKENGEFKIDYDRNFEPYIYALLKDDSAIEDVKKITAERHGTTVRVVRAEKVKKKFLGRPIEVWKLYFTHPQDQPAIRDKIKEHPAVVDIYEYDIPFAKRYLIDKGLIPMEGDEELKMLAFAIATLYHEGEEFAEGPILMISYADEEGARVITWKNIDLPYVDVVSTEKEMIKRFLKVVKEKDPDVLITYNGDNFDFAYLKKRSEKLGVKFILGREGSEPKIQRMGDRFAVEVKGRIHFDLYPVIRRTINLPTYTLEAVYEAIFGQPKEKVYAEEIAQAWETGEGLERVARYSMEDAKVTYELGKEFFPMEAQLSRLVGQSLWDVSRSSTGNLVEWFLLRKAYERNELAPNKPDERELARRRESYAGGYVKEPERGLWENIVYLDFRSLYPSIIITHNVSPDTLNREGCEEYDVAPQVGHKFCKDFPGFIPSLLGDLLEERQKVKKKMKATIDPIEKKLLDYRQRLIKILANSFYGYYGYAKARWYCKECAESVTAWGRQYIETTIREIEEKFGFKVLYADTDGFFATIPGADAETVKKKAKEFLDYINAKLPGLLELEYEGFYKRGFFVTKKKYAVIDEEDKITTRGLEIVRRDWSEIAKETQARVLEAILKHGDVEEAVRIVKEVTEKLSKYEVPTQHLVIHQQITRALNDYKAIGPHVAVAKRLAARGIKIRPGTVISYIVLKGSGRIGDRAIPFDEFDPAKHKYDAEYYIENQVLPAVERILRAFGYRKEDLRYQKTRQVGLGAWLKPKT
modifications: Prior art T. gorgonarius (Tgo) derived polymerase D4 with mutated patch 10 region
full-length (+57 nt) ANA product at 75 nM polymerase ([2]; 75 nM polymerase, 0.25 mM each arabinosyl-NTP): no full-length product
full-length (+57 nt) ANA product at 300 nM polymerase ([2]; 300 nM polymerase, 0.25 mM each arabinosyl-NTP): very little full-length

B6: D4K521: D4K with the further mutation I521L, SEQ ID NO:7 (protein)
chain: B5 chain with L403P, I521L, Q664K
modifications: Mutant polymerase D4YK with I521L mutation, derived from T. gorgonarius
polymerase concentration at which full-length (+57 nt) ANA product is present [1]: 2.3 nM
polymerase concentration for full-length ANA product relative to D4K ([1]; fraction of the concentration required for D4K): less than 1/8

Continued, in another order:

IC50 (Ramos): ~100000 nM
IC50 (CCRF-CEM): 884 nM
Molecule: Nc1nc2c(ncn2[C@@H]2O[C@H](CO)C(O)C2O)c(=O)[nH]1 (stereo partly drawn) [AraG, 9-beta-D-arabinofuranosyl-guanosine]

FANA RT activity (FANA template): robust FANA RT activity
B3: RT-521K: Tgo V93Q, D141A, E143A, A485L, I521L, E664K, K726R, A385V; SEQ ID NO:14 (protein)
chain: B1 chain with V93Q, D141A, E143A, A385V, E429G, F445L, I521L, E664K, K726R
modifications: T. go derived polymerase designated RT-521K

polymerase concentration at which full-length (+57 nt) ANA product is present [1]: 18.8 nM
polymerase concentration at which full-length (+57 nt) ANA product is present ([2]; 0.25 mM each arabinosyl-NTP, 1 min 94° C., 30 sec 50° C., 2 min 65° C.): 18.8 nM
polymerase concentration for full-length ANA product relative to D4 ([2]; fraction of the concentration required for D4): less than 1/15
B4: D4K: Tgo polymerase with V93Q, D141A, E143A, L403P, A485L, P657T, E658Q, K659H, Y663H, E664K, D669A, K671N, T676I; SEQ ID NO:5 (protein)
chain: B5 chain with L403P, Q664K
modifications: Polymerase D4YK derived from T. gorgonarius
time for efficient FANA synthesis (faNTP, DNA template; 97 nt incorporation tRNA and N40 library): less than 5 minutes
time to substantial full-length FANA product (faNTP, DNA template; ApLib5 (78 nt incorporations, 40 random)): 5 min
time to substantial full-length FANA synthesis (faNTP, DNA template; YtRtemp8 (98 nt incorporations)): 5 min
faNTP concentration down to which FANA synthesis remains robust (faNTP, DNA template; YtRtemp9 (93 nt incorporations), each faNTP): ≥ 31.2 µM
FANA-NTP concentration at which FANA synthesis is effective (faNTP, DNA template; each faNTP, compared to 250 μM each for ANA synthesis): less than 50 μM

FANA RT activity (FANA template): weak RT activity
B7: Dpo4: commercial DNA polymerase (protein, UniProt Q97W02 1-352, looked up)
DNA polymerase IV: MIVLFVDFDYFYAQVEEVLNPSLKGKPVVVCVFSGRFEDSGAVATANYEARKFGVKAGIPIVEAKKILPNAVYLPMRKEVYQQVSSRIMNLLREYSEKIEIASIDEAYLDISDKVRDYREAYNLGLEIKNKILEKEKITVTVGISKNKVFAKIAADMAKPNGIKVIDDEEVKRLIRELDIADVPGIGNITAEKLKKLGINKLVDTLSIEFDKLKGMIGEAKAKYLISLARDEYNEPIRTRVRKSIGRIVTMKRNSRNLEEIKPYLFRAIEESYYKLDKRIPKAIHVVAVTEDLDIVSRGRTFPHGISKETAYSESVKLLQKILEEDERKIRRIGVRFSKFIEAIGLDKFFDT
